Data on one molecule can be found in patent US20190194249A1 (NATIONAL INSTITUTE OF ADVANCED INDUSTRIAL SCIENCE AND …, published 2019).

The experiment addresses T1, pH 2.0-treated Fc (Fc region of human monoclonal IgG, acid-treated and neutralised) (human).
T1 construct: Dialysed at pH 2.0 for 12 h, then neutralised; also called acid-treated Fc region
The experiment can be described thus: SPR (Biacore T100), AF.ab9 immobilised on CM5, Fc region as analyte. A general note: In SPR one partner is held on a chip, and binding of the other changes the refractive index at the surface.

B1: Polypeptide AF.ab9 (SEQ ID NO: 8) (peptide)
peptide: PNSGGGGSYDPETGTWPQEIRLILNW
notes: Chemically synthesised; 8-residue linker + 8-residue chignolin + 10-residue selected region
For the molecule B1, the “binding response relative to that on the acid-treated (non-native) Fab region” value is ≤ 0.01 fold.
